The values below come from US20240109962A1 (SPARX BIOSCIENCE, published 2024).

Changes are numbered by the printed parent chain. Read-outs that look alike come from different tables or passages of the source.

Test [1] has as its target LILRB2 antigen of the ELISA of Table 5 (format not specified) (UniProt Q8N423 22-460, limits assumed). The experiment in a line: ELISA, antibody titration.
The target in test [2] is T1, His-tagged human LILRB2 polypeptide (human, UniProt Q8N423 22-460).
T1 construct: SPR analyte; also called His-tagged human LILBR2 polypeptide; not shown: His tag
T1 sequence (Q8N423 22-460 limits assumed): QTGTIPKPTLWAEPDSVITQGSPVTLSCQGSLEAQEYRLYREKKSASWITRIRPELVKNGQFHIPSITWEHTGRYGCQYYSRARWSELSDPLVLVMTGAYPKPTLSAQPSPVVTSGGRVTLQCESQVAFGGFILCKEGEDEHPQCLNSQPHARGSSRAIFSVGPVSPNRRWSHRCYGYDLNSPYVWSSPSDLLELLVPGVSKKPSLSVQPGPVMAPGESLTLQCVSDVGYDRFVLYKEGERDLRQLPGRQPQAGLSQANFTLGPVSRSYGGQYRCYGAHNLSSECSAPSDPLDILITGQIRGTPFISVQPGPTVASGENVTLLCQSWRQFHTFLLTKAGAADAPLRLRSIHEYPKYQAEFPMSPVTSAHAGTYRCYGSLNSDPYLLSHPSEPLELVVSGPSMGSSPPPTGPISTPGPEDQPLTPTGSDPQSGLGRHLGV
The experiment in a line: SPR, antibody on CM5 chip, His-LILRB2 analyte, 1:1 model. The method, then: Surface plasmon resonance (SPR) was used to examine binding activities of exemplary anti-LILBR2 antibodies disclosed herein. Briefly, the anti-LILBR2 antibody was diluted in a coating buffer to a concentration of 30 μg/ml, loaded onto CM5 chips at 10 μl/min to allow coating of the antibody on the surface of the CM5 chip. […] Binding affinity was measured based on the 1:1 binding model.

The target in test [3] is T2, human LILRB3 expressed on 293T cells (human, UniProt O75022 24-631).
T2 construct: whole, on cells
Briefly: cell ELISA on fixed 293T transfectants, OD490. The method, then:
(§1) The cells were then immobilized with glutaraldehyde in the presence of 5% defatted milk at room temperature for 2 hours. An anti-LILRB2 antibody (2 μg/ml) was added to each well and incubated at room temperature for 2 hours. An HRP-labelled goat anti-mouse secondary antibody was then added into each well and incubated at room temperature for one hour. An HRP substrate, o-phenylenediamine dihydrochloride (OPD) was then added to each well. The plate was incubated at room temperature for 15 min to allow color development and OD₄₉₀ values were determined.

Test [4] concerns the target T3, human LILRB1 expressed on 293T cells (human, UniProt Q8NHL6 24-650).
T3 construct: whole, on cells
Briefly: cell ELISA on fixed 293T transfectants, OD490. The method, then:
as §1

Test [5] deals with T4, human LILRB2 expressed on cells (293T-LILRB2, CHO-K1-LILRB2) (human, UniProt Q8N423 22-597).
T4 construct: whole, on cells; the cell line is named under assay; also called HEK293T-LILRB2
T4 sequence (Q8N423 22-597): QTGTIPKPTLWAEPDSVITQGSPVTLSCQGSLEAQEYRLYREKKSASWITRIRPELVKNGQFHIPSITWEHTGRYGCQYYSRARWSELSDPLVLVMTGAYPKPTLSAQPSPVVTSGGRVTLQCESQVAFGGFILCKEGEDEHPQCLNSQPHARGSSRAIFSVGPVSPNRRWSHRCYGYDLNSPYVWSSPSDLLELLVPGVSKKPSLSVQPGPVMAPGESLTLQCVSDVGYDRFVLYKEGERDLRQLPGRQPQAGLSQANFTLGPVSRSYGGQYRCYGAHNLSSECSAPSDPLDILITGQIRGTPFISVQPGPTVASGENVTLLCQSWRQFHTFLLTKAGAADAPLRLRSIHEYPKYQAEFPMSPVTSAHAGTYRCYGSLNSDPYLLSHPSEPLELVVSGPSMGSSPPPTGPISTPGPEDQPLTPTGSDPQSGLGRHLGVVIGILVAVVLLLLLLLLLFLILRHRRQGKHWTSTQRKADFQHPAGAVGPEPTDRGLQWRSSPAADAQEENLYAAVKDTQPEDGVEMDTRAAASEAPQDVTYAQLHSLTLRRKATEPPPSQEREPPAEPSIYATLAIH
Briefly: flow cytometry on 293T-LILRB2 cells, serial dilution, APC anti-human IgG; fit table under the graph. The text has this: (§2) The cells were washed and then subject to flow cytometry to measure levels of fluorescent signals.

Test [6] deals with T4, human LILRB2 expressed on cells …. The experiment in a line: flow cytometry, blockade of His-tagged HLA-G tetramer binding to 293T-LILRB2 cells; fit table under the graph, row headed EC50. The method, then: (§3) Serial diluted humanized LILRB2 antibodies were then added to the mixture and incubated at room temperature for another 45 minutes. The binding of HLA-G/LILRB2 was detected afterwards using a secondary PE-labeled anti-His tag antibody via flow cytometry.

The target is the same in test [7]. Briefly: flow cytometry, blockade of His-tagged HLA-G tetramer binding to 293T-LILRB2 cells; fit table under the graph. The method, then:
as §3

Test [8] has the same target. The experiment in a line: flow cytometry on 293T-LILRB2 cells, serial dilution, APC anti-human IgG; fit table under the graph.
Description: as §2
This is another data set of the same source.

The target of test [9] is T5, LILRB3-His.
T5 construct: also called His-tagged LILRB3; recombinant LILRB3 protein
Briefly: ELISA on recombinant His-tagged protein, OD450.

Test [10] concerns the target T6, LILRB1-His.
T6 construct: also called His-tagged LILRB1; recombinant LILRB1 protein
Briefly: ELISA on recombinant His-tagged protein, OD450.

Test [11] concerns the target T2, human LILRB3 expressed on 293T cells. The experiment in a line: flow cytometry on 293T transfectants, MFI. The method, then:
(§4) The cells were then immobilized with glutaraldehyde in the presence of 5% defatted milk at room temperature for 2 hours. An anti-LILRB2 antibody (5 μg/ml) was added to each well and incubated at room temperature for 1 hours. An Alex Flour®-labelled goat anti-mouse secondary antibody (1:2,000 dilution) was then added into each well and incubated at room temperature for 30′. The cells were washed twice with PBS after the staining. Fluorescence intensities (MFI) were measured.

The target in test [12] is T3, human LILRB1 expressed on 293T cells. The experiment in a line: flow cytometry on 293T transfectants, MFI. The method, then: as §4

T3 sequence (Q8NHL6 24-650): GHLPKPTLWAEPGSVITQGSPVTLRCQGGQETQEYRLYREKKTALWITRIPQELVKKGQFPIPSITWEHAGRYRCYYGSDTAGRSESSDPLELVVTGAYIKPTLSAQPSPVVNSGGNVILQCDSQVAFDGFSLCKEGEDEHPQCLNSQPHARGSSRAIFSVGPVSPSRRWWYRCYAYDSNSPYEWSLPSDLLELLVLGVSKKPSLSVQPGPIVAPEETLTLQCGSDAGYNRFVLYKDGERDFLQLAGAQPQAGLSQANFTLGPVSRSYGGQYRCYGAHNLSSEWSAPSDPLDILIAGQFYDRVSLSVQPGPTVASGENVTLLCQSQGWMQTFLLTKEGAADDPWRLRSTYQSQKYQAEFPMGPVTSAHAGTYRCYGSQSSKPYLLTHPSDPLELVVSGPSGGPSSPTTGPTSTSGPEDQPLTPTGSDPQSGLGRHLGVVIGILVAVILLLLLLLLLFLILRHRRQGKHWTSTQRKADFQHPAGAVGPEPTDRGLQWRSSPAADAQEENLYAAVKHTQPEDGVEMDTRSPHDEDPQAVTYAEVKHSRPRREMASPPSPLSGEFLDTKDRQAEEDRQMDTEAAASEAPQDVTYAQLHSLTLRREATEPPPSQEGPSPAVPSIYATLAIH
T6 sequence (chain, as listed by the source limits assumed): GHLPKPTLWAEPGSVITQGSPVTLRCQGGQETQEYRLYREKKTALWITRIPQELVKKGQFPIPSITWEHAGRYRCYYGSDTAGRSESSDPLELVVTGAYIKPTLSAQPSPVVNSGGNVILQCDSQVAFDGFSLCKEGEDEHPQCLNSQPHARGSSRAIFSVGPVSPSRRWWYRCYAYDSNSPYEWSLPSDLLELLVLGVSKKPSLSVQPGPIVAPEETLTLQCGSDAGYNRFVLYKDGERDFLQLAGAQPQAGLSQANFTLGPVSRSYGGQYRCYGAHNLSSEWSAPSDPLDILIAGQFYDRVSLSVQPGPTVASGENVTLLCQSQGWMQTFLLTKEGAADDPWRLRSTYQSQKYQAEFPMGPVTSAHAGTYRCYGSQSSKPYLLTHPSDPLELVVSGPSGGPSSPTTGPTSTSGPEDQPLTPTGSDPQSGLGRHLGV
Sequence of LILRB2 antigen of the ELISA of Table 5 (format not specified) (Q8N423 22-460 limits assumed): as the sequence (Q8N423 22-460 limits assumed) above

B1: Antibody 7C12 (antibody, V domains shown)
VH: EVQLQQSGPDLVKPGASVKISCKASGYIFTDFNMHWVKQSHGKSLEWIGYIYPFNGGTGYNQKFENMATLTVDISSSTAYMEVRSLTSEDSAVYYCARRGGRGHFDYWGQGTTLTVSS
VL: DIQMTQSPASLSASVGETVTVTCRASGNIHNYLAWYQQKQGKSPQLLVYNAKTLADGVPSRFSGSGSGIQFSLKINSLQPEDFGSYYCQHFWNTPFTFGSGTKLEIK
notes: Mouse hybridoma mAb purified from ascites
As for B1, the equilibrium dissociation constant (Kd) in test [1] was found to be 0.631 nM; in test [2], 0.792 nM. The koff in [2] amounted to 0.000209 s⁻¹. In test [2], this molecule registered a kon of 263000 M⁻¹ s⁻¹. Also, the binding result in [3] and in test [4] was “no binding (tested: 2 µg/ml)” throughout.

B2: Antibody h#2B1 (antibody, V domains shown)
VH: EVQLVESGGGLVQPGGSLRLSCAVSGYSITSGYYWNWIRQAPGKGLEWVAYISYDGNNNYNPSLKNRFTISRDASKNTVYLQMNSLRAEDTAVYYCAREESTMITTAWFAYWGQGTLVTVSS
VL: DIQMTQSPSSLSASVGDRVTITCRASENIYSNLAWYQQKPGKAPKLLIYGATNLASGVPSRFSGSGSGTDYTLTISSLQPEDFATYYCQHFWDTPYTFGQGTKVEIK
notes: Humanized variant of 11B12
With B2, in test [5], the Bmax stood at 606000 RFU and binding was put at a Kd of 0.256 nM. In [6], the 50% effective concentration (EC50) turned out to be 0.219 nM. Moreover, in test [7], the Span is 8850 RFU.

B3: Antibody h#2D2 (antibody, V domains shown)
VH: B2 VH with V79F
VL: B2 VL
notes: Humanized variant of 11B12
In test [8], B3 registered a Bmax of 608000 RFU and a Kd of 0.362 nM. In addition, the midpoint of the response in [6], the EC50, lay at 0.131 nM. This molecule also had a Span in test [7] of 7640 RFU.

B4: Antibody h#2E2 (antibody, V domains shown)
VH: B2 VH with A74T
VL: B2 VL
notes: Humanized variant of 11B12
Consider B4, for which, in [5], the Bmax is 615000 RFU and binding was put at a Kd of 0.317 nM. In addition, the concentration for a half-maximal effect (EC50) in [6] came to 0.389 nM. The molecule further came in with a Span in [7] of 8780 RFU.

B5: Antibody 2C1 (antibody, V domains shown)
VH: EVKLVEPGGGLVQPGGSLRLSCATSGFTFSDFYMGWVRQPPGKRLEWIAASGNKAHDYATEYSASVKGRFFVSRDTFQSILYLQMNALRAEDTAIYYCARSYYYGSSAWFTYWGQGTLVTVSV
VL: DIVMTQSHKFMSTSIRDRVTIACKASQDVGTAVAWYQQKPGQSPKLLIFWASTRHAGVPDRFTGSGSGTDFTLTISNVQSEDLTDYFCQQYSSYPLTFGAGTKLELK
notes: as for B1
For the molecule B5, the binding result in [3] and in [4] was “no binding (tested: 2 µg/ml)” each time.

B6: Antibody 6H8 (antibody, V domains shown)
VH: QIQLVQSGPELKKPGETVRISCKASGYTFTNYGMNWVKQAPGKGLKWMGWINTYTGEPTYADDFRGRFALSLEPSASTASLQINNLKNEDTATYFCARYYDYDYFDYWGQGTTLTVSS
VL: DIVMTQSPSSLRVSAGEKVTMSCKSSQSLLNGGNQKNYLAWYQQKPGQPPKVLIYGASTRVSGVPDRFTGRGSGIDFTLTISSVEAEDLAVYYCQNDLSYPLTFGAGTKLELK
notes: as for B1
As for B6, the binding result is “no binding” in [9], “no binding” in test [10], “no binding (tested: 2 µg/ml)” in test [3] and “no binding (tested: 2 µg/ml)” in test [4]. The same molecule gave a Kd in test [1] of 5.7 nM.

B7: Antibody 3C12 (antibody, V domains shown)
VH: QVQLKESGPGLVAPSQSLSITCTVSGFSLTSYGVHWVRQSPGKGLEWLGVIWAGGTTNYNSALMSRLSISKDNSKSQVFLKMNSLQADDTAMYYCARGGYGHSMDYWGQGTSVTVSS
VL: DIVMTQSHKFMSTSVGDRVSITCKASQDVSNAVAWYQQKPGQSPKLLIYSASYRYTGVPDRFTGSGSGTDFIFTISSVQAEDLAVYYCQQHYSTPFTFGSGTKLEIK
notes: as for B1
For the molecule B7, the binding result is “no binding” in test [9], “no binding” in test [10], “no binding (tested: 2 µg/ml)” in test [3] and “no binding (tested: 2 µg/ml)” in test [4]. In test [1], the Kd was found to be 5.01 nM.

B8: Antibody 15A6 (antibody, V domains shown)
VH: EVKLVESGGDLVKPGGSLKLSCAASGFTFSTYGMSWVRQTPEKRLEWVATISGSNSYTYYPDSVKGRFTISRDNAKNNLYLQMSSLRSEDTALYYCTRHENGYYFYAMDYWGQGTSVTVSS
VL: DVQITQSPSYLTASPGETITINCRSSKSITKYLAWYQEKPGKTNKLLIYSGSTLQSGIPSRFSGSGSGTDFTLTISSLEPEDFAMYYCQQHSEYPWTFGGGTRLEIK
notes: as for B1
Molecule B8 returned a dissociation constant Kd in test [1] of 0.725 nM. In test [2], this molecule returned a Kd of 5.45 nM, an off-rate (koff) of 0.00137 s⁻¹ and a kon of 251000 M⁻¹ s⁻¹. The binding result in test [4] is reported as “no binding (tested: 2 µg/ml)”.

B9: Antibody 8A4 (antibody, V domains shown)
VH: QVQLKESGPGLVAPSQSLSITCTVSGFSLTDYGVNWVRQPPGKGLEWLGMIWGDGNTDYNSALKSRLSISKVNSKSQVFLKMNSLQTDDTARYYCARSSYRYDENIYYYAMDYWGQGTSVTVSS
VL: DIVMTQSPSSLTVTAGEEVTLSCKSSQSLLNSGIQKNYLTWYQQKPGQPPKLLIYWASTRESGVPDRFTGSVSGTDFTLTISSVQAEDLAVYYCQNDYSLPFTFGSGTKLEIK
notes: as for B1
Regarding B9, the binding result in [11] was “no binding (tested: 5 µg/ml)”; in test [12], “no binding (tested: 5 µg/ml)”; in [9], “no binding”; in [10], “no binding”. Further, the Kd in test [1] is 0.493 nM; in test [2] it was 0.185 nM. In [2], this molecule gave a koff of 0.000174 s⁻¹. The same molecule had a kon in test [2] of 940000 M⁻¹ s⁻¹.
